Results: IntAct's records for PubMed 31515488

B1: Centrosomal protein of 55 kDa (Homo sapiens), Q53EZ4 (parent)
chain: MSSRSTKDLIKSKWGSKPSNSKSETTLEKLKGEIAHLKTSVDEITSGKGKLTDKERHRLLEKIRVLEAEKEKNAYQLTEKDKEIQRLRDQLKARYSTTTLLEQLEETTREGERREQVLKALSEEKDVLKQQLSAATSRIAELESKTNTLRLSQTVAPNCFNSSINNIHEMEIQLKDALEKNQQWLVYDQQREVYVKGLLAKIFELEKKTETAAHSLPQQTKKPESEGYLQEEKQKCYNDLLASAKKDLEVERQTITQLSFELSEFRRKYEETQKEVHNLNQLLYSQRRADVQHLEDDRHKTEKIQKLREENDIARGKLEEEKKRSEELLSQVQFLYTSLLKQQEEQTRVALLEQQMQACTLDFENEKLDRQHVQHQLHVILKELRKARNQITQLESLKQLHEFAITEPLVTFQGETENREKVAASPKSPTAALNESLVECPKCNIQYPATEHRDLLVHVEYCSK
B2: PHD finger protein 1 (Homo sapiens), O43189 (parent)
chain: MAQPPRLSRSGASSLWDPASPAPTSGPRPRLWEGQDVLARWTDGLLYLGTIKKVDSAREVCLVQFEDDSQFLVLWKDISPAALPGEELLCCVCRSETVVPGNRLVSCEKCRHAYHQDCHVPRAPAPGEGEGTSWVCRQCVFAIATKRGGALKKGPYARAMLGMKLSLPYGLKGLDWDAGHLSNRQQSYCYCGGPGEWNLKMLQCRSCLQWFHEACTQCLSKPLLYGDRFYEFECCVCRGGPEKVRRLQLRWVDVAHLVLYHLSVCCKKKYFDFDREILPFTSENWDSLLLGELSDTPKGERSSRLLSALNSHKDRFISGREIKKRKCLFGLHARMPPPVEPPTGDGALTSFPSGQGPGGGVSRPLGKRRRPEPEPLRRRQKGKVEELGPPSAVRNQPEPQEQRERAHLQRALQASVSPPSPSPNQSYQGSSGYNFRPTDARCLPSSPIRMFASFHPSASTAGTSGDSGPPDRSPLELHIGFPTDIPKSAPHSMTASSSSVSSPSPGLPRRSAPPSPLCRSLSPGTGGGVRGGVGYLSRGDPVRVLARRVRPDGSVQYLVEWGGGGIF
B3: Homeobox protein PKNOX1 (Homo sapiens), P55347 (parent)
chain: MMATQTLSIDSYQDGQQMQVVTELKTEQDPNCSEPDAEGVSPPPVESQTPMDVDKQAIYRHPLFPLLALLFEKCEQSTQGSEGTTSASFDVDIENFVRKQEKEGKPFFCEDPETDNLMVKAIQVLRIHLLELEKVNELCKDFCSRYIACLKTKMNSETLLSGEPGSPYSPVQSQQIQSAITGTISPQGIVVPASALQQGNVAMATVAGGTVYQPVTVVTPQGQVVTQTLSPGTIRIQNSQLQLQLNQDLSILHQDDGSSKNKRGVLPKHATNVMRSWLFQHIGHPYPTEDEKKQIAAQTNLTLLQVNNWFINARRRILQPMLDSSCSETPKTKKKTAQNRPVQRFWPDSIASGVAQPPPSELTMSEGAVVTITTPVNMNVDSLQSLSSDGATLAVQQVMMAGQSEDESVDSTEEDAGALAPAHISGLVLENSDSLQ
B4: Centrosomal protein POC5 (Homo sapiens), Q8NA72 (parent)
chain: MSSDEEKYSLPVVQNDSSRGSSVSSNLQEEYEELLHYAIVTPNIEPCASQSSHPKGELVPDVRISTIHDILHSQGNNSEVRETAIEVGKGCDFHISSHSKTDESSPVLSPRKPSHPVMDFFSSHLLADSSSPATNSSHTDAHEILVSDFLVSDENLQKMENVLDLWSSGLKTNIISELSKWRLNFIDWHRMEMRKEKEKHAAHLKQLCNQINELKELQKTFEISIGRKDEVISSLSHAIGKQKEKIELMRTFFHWRIGHVRARQDVYEGKLADQYYQRTLLKKVWKVWRSVVQKQWKDVVERACQARAEEVCIQISNDYEAKVAMLSGALENAKAEIQRMQHEKEHFEDSMKKAFMRGVCALNLEAMTIFQNRNDAGIDSTNNKKEEYGPGVQGKEHSAHLDPSAPPMPLPVTSPLLPSPPAAVGGASATAVPSAASMTSTRAASASSVHVPVSALGAGSAATAASEEMYVPRVVTSAQQKAGRTITARITGRCDFASKNRISSSLAIMGVSPPMSSVVVEKHHPVTVQTIPQATAAKYPRTIHPESSTSASRSLGTRSAHTQSLTSVHSIKVVD
partner: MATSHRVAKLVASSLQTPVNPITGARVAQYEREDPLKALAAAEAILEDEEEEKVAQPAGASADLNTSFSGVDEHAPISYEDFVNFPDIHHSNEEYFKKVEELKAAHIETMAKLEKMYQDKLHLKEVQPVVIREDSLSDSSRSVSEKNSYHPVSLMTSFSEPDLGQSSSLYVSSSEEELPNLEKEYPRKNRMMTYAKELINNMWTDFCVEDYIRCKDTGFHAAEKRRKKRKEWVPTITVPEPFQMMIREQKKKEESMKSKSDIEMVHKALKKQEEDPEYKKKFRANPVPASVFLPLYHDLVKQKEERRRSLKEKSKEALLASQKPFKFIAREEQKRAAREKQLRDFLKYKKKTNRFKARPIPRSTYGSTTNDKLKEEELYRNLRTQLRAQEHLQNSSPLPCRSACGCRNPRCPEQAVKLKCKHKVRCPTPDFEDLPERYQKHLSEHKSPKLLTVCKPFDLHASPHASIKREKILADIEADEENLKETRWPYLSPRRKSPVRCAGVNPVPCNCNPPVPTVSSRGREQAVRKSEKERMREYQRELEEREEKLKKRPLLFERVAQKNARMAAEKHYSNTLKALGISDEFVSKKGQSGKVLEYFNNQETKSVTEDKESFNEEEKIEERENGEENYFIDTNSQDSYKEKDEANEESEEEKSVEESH
B5: E3 ubiquitin-protein ligase CCNB1IP1 (Homo sapiens), Q9NPC3 (parent)
chain: MSLCEDMLLCNYRKCRIKLSGYAWVTACSHIFCDQHGSGEFSRSPAICPACNSTLSGKLDIVRTELSPSEEYKAMVLAGLRPEIVLDISSRALAFWTYQVHQERLYQEYNFSKAEGHLKQMEKIYTQQIQSKDVELTSMKGEVTSMKKVLEEYKKKFSDISEKLMERNRQYQKLQGLYDSLRLRNITIANHEGTLEPSMIAQSGVLGFPLGNNSKFPLDNTPVRNRGDGDGDFQFRPFFAGSPTAPEPSNSFFSFVSPSRELEQQQVSSRAFKVKRI

Variants of: B1
Conditions: with dpolm_human POLM

**Q.** For C236R, which “effect of a mutation on the interaction” value is on record?
**A.** Its value is “with no effect”.

Variants of: B1
Conditions: with tead4_human TEAD4, Q15561
Sequence of tead4_human TEAD4, Q15561 (Q15561 whole entry): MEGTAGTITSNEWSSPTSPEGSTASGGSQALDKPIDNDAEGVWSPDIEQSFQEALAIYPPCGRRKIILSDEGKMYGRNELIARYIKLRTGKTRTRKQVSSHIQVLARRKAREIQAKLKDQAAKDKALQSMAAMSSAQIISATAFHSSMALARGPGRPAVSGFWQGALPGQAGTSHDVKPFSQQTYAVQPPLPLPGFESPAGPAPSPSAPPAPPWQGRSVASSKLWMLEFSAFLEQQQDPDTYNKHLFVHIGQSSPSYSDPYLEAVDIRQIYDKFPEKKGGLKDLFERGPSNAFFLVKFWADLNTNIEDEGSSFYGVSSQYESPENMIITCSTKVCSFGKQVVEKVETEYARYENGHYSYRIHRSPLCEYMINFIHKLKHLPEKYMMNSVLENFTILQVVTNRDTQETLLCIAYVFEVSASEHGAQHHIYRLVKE

**Q.** For C236R, which “effect of a mutation on the interaction” value is on record?
**A.** The value was “with no effect”.

Variants of: B1
Conditions: with anx11_human ANXA11, P50995
Sequence of anx11_human ANXA11, P50995 (P50995 whole entry): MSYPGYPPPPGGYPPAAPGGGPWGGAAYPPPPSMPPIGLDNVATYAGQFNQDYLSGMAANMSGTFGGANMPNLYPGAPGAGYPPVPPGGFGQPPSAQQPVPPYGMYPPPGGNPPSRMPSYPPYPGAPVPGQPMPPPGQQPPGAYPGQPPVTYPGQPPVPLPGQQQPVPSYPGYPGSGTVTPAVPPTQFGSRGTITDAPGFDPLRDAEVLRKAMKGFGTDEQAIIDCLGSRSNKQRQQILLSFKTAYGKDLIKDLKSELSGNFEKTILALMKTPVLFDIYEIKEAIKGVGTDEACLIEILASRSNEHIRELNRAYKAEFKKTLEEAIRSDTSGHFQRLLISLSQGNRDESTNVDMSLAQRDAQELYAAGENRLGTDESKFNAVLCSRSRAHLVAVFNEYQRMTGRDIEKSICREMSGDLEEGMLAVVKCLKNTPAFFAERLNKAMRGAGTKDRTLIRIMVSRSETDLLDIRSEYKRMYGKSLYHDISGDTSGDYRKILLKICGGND

**Q.** C236R was tested. Which “effect of a mutation on the interaction” value did it give?
**A.** The value was “with no effect”.

Variants of: B1
Conditions: with pdc6i_human PDCD6IP

**Q.** How did the “effect of a mutation on the interaction” value turn out when C236R was run?
**A.** Its value is “with no effect”.

Variants of: B2
Conditions: with dhb14_human HSD17B14, Q9BPX1
Sequence of dhb14_human HSD17B14, Q9BPX1 (Q9BPX1 whole entry): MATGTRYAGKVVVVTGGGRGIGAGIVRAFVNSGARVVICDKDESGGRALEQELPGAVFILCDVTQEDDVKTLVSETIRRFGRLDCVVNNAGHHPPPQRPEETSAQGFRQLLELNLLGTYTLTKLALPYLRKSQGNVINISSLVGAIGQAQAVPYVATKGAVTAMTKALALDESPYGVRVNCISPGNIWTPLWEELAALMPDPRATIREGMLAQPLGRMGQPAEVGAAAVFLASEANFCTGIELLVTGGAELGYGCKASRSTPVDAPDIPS

**Q.** S14L was tested. Which “effect of a mutation on the interaction” value did it give?
**A.** The value was “with no effect”.

Variants of: B2
Conditions: with tri23_human TRIM23, P36406
Sequence of tri23_human TRIM23, P36406 (P36406 whole entry): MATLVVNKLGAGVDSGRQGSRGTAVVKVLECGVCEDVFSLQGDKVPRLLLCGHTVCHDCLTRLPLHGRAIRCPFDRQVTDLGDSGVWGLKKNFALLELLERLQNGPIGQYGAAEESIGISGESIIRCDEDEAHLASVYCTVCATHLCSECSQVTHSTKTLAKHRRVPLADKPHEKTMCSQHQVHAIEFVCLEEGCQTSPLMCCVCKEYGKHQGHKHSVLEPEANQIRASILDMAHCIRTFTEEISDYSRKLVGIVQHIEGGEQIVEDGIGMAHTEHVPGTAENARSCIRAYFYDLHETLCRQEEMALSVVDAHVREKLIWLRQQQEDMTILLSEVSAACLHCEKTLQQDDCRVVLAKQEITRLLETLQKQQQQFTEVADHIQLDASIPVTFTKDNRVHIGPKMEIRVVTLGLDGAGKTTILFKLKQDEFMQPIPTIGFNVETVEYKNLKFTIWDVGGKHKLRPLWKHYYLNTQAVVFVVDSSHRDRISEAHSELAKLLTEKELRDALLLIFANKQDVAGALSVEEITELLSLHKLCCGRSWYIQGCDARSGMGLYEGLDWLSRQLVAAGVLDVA

**Q.** For S14L, which “effect of a mutation on the interaction” value is on record?
**A.** Its value is “with no effect”.

Variants of: B2
Conditions: with pdli7_human PDLIM7, Q9NR12
Sequence of pdli7_human PDLIM7, Q9NR12 (Q9NR12 whole entry): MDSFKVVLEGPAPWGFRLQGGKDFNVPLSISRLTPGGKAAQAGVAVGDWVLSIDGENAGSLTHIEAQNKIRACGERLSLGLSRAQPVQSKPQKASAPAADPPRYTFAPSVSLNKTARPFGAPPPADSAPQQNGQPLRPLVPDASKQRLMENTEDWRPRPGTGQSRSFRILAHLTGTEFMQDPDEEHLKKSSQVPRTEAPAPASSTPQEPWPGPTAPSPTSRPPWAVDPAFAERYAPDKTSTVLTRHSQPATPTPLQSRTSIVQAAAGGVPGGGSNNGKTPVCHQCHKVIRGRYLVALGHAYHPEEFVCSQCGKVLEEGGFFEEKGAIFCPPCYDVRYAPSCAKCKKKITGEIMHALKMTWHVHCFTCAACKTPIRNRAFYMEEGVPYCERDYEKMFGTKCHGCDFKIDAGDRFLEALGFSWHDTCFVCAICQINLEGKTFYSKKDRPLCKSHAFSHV

**Q.** For S14L, which “effect of a mutation on the interaction” value is on record?
**A.** The value was “with no effect”.

Variants of: B3
Conditions: with vp37c_human VPS37C

**Q.** For V265I, which “effect of a mutation on the interaction” value is on record?
**A.** The value was “with no effect”.

**Q.** For E103D, which “effect of a mutation on the interaction” value is on record?
**A.** Its value is “with no effect”.

Variants of: B3
Conditions: with vp37c_human VPS37C
Remark: another data set of the same source

**Q.** How did the “effect of a mutation on the interaction” value turn out when V265I was run?
**A.** Its value is “with no effect”.

Variants of: B4
Conditions: with FAM161A

**Q.** For H36R, which “effect of a mutation on the interaction” value is on record?
**A.** The value was “with no effect”.

**Q.** With I175M as the variant, how does the “effect of a mutation on the interaction” value read?
**A.** Its value is “with no effect”.

Variants of: B5
Conditions: with aapk2_human PRKAA2, P54646
Sequence of aapk2_human PRKAA2, P54646 (P54646 whole entry, looked up): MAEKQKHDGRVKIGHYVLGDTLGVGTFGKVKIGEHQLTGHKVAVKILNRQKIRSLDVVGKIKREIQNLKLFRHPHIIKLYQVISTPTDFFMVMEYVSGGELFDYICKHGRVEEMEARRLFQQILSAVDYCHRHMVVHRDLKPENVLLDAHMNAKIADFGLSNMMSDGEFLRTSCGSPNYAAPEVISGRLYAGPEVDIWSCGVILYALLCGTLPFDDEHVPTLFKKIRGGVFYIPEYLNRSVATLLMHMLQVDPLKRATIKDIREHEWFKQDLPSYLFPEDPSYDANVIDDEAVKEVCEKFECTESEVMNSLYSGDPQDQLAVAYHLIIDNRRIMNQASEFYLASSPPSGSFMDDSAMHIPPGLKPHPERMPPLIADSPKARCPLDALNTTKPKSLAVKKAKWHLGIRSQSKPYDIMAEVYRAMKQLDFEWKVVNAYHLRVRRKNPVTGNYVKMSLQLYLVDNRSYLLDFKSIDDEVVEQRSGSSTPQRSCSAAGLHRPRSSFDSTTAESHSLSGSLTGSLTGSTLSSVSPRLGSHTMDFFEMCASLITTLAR

**Q.** With N212D as the variant, how does the “effect of a mutation on the interaction” value read?
**A.** The value was “with no effect”.

**Q.** For Y106H, which “effect of a mutation on the interaction” value is on record?
**A.** Its value is “with no effect”.

**Q.** F41L was tested. Which “effect of a mutation on the interaction” value did it give?
**A.** The value was “with no effect”.

**Q.** Which “effect of a mutation on the interaction” value does the source give for R104H here?
**A.** Its value is “disrupting interaction strength”.

**Q.** With T187A as the variant, how does the “effect of a mutation on the interaction” value read?
**A.** Its value is “with no effect”.

Variants of: B5
Conditions: with KRT15, P19012
Sequence of KRT15, P19012 (P19012 whole entry): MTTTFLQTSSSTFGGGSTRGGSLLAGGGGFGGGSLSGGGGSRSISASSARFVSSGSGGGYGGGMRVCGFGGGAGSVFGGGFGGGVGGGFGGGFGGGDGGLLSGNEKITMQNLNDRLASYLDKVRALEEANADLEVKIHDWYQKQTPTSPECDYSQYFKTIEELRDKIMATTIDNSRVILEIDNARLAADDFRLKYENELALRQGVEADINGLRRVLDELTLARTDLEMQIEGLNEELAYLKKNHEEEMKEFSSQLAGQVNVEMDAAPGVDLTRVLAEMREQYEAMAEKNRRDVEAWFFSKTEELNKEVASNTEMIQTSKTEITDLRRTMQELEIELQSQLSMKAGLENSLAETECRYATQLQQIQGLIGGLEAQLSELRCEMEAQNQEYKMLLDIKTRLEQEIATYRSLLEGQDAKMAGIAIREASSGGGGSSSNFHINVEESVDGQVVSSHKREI

**Q.** For N212D, which “effect of a mutation on the interaction” value is on record?
**A.** The value was “with no effect”.

**Q.** For Y106H, which “effect of a mutation on the interaction” value is on record?
**A.** The value was “disrupting interaction strength”.

**Q.** How did the “effect of a mutation on the interaction” value turn out when F41L was run?
**A.** Its value is “with no effect”.

**Q.** How did the “effect of a mutation on the interaction” value turn out when R104H was run?
**A.** Its value is “with no effect”.

**Q.** For T187A, which “effect of a mutation on the interaction” value is on record?
**A.** Its value is “with no effect”.

Variants of: B5
Conditions: with keap1_human KEAP1, Q14145
Sequence of keap1_human KEAP1, Q14145 (Q14145 whole entry): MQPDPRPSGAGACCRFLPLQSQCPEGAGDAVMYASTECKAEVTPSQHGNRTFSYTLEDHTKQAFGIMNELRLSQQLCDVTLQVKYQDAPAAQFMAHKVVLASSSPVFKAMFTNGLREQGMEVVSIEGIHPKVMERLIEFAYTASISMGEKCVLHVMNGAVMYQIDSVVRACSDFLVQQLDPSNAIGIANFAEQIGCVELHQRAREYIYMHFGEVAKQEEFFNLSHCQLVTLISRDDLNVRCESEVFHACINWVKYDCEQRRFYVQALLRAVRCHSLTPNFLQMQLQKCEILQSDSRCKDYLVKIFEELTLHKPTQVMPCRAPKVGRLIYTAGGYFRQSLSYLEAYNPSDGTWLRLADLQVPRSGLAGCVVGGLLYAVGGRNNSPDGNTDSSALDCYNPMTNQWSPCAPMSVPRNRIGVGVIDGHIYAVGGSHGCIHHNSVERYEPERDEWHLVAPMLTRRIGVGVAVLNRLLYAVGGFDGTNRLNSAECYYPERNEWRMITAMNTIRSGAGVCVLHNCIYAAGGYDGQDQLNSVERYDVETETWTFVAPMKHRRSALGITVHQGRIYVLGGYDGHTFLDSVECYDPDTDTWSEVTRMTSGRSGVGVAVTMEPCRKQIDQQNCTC

**Q.** Which “effect of a mutation on the interaction” value does the source give for N212D here?
**A.** Its value is “with no effect”.

**Q.** Y106H was tested. Which “effect of a mutation on the interaction” value did it give?
**A.** The value was “with no effect”.

**Q.** F41L was tested. Which “effect of a mutation on the interaction” value did it give?
**A.** Its value is “with no effect”.

**Q.** For R104H, which “effect of a mutation on the interaction” value is on record?
**A.** The value was “with no effect”.

**Q.** T187A was tested. Which “effect of a mutation on the interaction” value did it give?
**A.** Its value is “with no effect”.
